Residue numbers refer to the chain shown, from its start. One block for each molecule: values may come before it.
Assays:
[1] = target: T1, human EphA4 (binding to human Ephrin A5) (Homo sapiens, UniProt P54764); experiment: Human EphA4-human ligand binding inhibition ELISA of humanized antibodies (biotinylated Ephrin A5-Fc); conditions: biotinylated human Ephrin A5-Fc 0.7 nM
T1 construct: made in house; not restated for the human SEAP-His protein
Experimental: Each anti-EphA4 monoclonal humanized antibody obtained in Example 16 was evaluated for its inhibitory activity against the binding between human EphA4 and its human ligand according to the following steps. Each well of a 96-well plate (Nunc) was coated with an anti-alkaline phosphatase antibody (Thermo Fisher Scientific). After incubation overnight at 4° C., each well was blocked with 1% BlockAce (DS Pharma Biomedical) at room temperature for 1 hour. After washing with 0.05% Tween 20/PBS (Thermo Fisher Scientific) three times, the human EphA4 extracellular region-SEAP-His protein obtained by the method of Example 2 was added (final concentration: 10 nM) to each well and incubated at room temperature for 1 hour. After washing three times, a ligand and each serially diluted humanized antibody of antibody A (0, 0.003, 0.01, 0.03, 0.1, 0.3, 1, 3, 10, 30, 100, 300, 1000, and 3000 nM) were added to each well. The ligand used was biotinylated human Ephrin A5-Fc chimera (R&D Systems, final concentration: 0.7 nM). After incubation at room temperature for 1 hour and subsequent washing three times, horseradish peroxidase-labeled streptavidin (GE Healthcare) was added thereto and incubated at room temperature for 1 hour. After washing three times, a TMBZ (3,3′,5,5′-tetramethylbenzidine, Sigma-Aldrich) solution was added to each well and incubated at room temperature for 2 minutes. An equal amount of a reaction stopping solution (1N H2SO4, Wako Pure Chemical Industries) was added to each well. The absorbance at 450 nm was read using a microplate reader (PerkinElmer).

human EphA7 = target: T2, human EphA7 (Homo sapiens, UniProt Q15375); experiment: Selectivity ELISA of humanized antibodies for human Eph receptor; assay type: binding; conditions: coated protein 1 nM
T2 construct: a protein of the extracellular region of each human Eph receptor fused with the SEAP protein and the His tag; made in house; host or cells: Expi293F cells (culture supernatant)
T2 sequence (Q15375 28-555 limits assumed): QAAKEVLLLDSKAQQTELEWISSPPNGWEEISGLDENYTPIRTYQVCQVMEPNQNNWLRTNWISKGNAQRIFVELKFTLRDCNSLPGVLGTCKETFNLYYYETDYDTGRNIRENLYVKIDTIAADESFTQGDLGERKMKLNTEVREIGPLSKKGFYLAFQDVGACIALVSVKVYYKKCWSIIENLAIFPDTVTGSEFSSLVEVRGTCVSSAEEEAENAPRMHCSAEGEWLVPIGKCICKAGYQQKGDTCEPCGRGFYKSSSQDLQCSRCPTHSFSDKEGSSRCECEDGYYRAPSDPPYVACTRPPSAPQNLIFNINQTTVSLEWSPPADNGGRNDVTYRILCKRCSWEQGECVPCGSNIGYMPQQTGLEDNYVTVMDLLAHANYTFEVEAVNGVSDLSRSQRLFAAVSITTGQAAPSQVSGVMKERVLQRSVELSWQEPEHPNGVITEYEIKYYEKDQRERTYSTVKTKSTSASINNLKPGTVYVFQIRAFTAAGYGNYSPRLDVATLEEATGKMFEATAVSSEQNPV
How it was run: (§1)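 Steps: coat anti-His antibody; block, then 1% BlockAce overnight at 4 °C; add Eph receptor extracellular region-SEAP-His (1 nM final) 1 h; add humanized antibody 1 h; add HRP anti-IgG 1 h; develop TMB; stop with acid; read 450 nm.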

human EphA8 = target: T3, human EphA8 (Homo sapiens, UniProt P29322); experiment: as above; assay type: binding; conditions: coated protein 1 nM
T3 construct: a protein of the extracellular region of each human Eph receptor fused with the SEAP protein and the His tag; made in house; host or cells: Expi293F cells (culture supernatant)
T3 sequence (P29322 28-542 limits assumed): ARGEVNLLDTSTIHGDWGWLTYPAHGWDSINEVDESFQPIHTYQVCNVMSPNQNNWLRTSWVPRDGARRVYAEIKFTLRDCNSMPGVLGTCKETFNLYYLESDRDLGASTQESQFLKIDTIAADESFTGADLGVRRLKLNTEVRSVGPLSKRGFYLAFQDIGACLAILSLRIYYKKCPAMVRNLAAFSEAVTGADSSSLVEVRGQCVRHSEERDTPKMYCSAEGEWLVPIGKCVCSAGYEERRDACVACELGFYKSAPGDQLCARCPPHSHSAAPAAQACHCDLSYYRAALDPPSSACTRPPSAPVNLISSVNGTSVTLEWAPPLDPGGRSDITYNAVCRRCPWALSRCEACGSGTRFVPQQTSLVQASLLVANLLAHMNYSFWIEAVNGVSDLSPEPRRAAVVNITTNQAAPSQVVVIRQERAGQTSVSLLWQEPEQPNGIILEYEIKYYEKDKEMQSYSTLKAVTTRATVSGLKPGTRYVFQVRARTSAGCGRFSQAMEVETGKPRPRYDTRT
How it was run: as §1

T1 sequence (P54764 20-547): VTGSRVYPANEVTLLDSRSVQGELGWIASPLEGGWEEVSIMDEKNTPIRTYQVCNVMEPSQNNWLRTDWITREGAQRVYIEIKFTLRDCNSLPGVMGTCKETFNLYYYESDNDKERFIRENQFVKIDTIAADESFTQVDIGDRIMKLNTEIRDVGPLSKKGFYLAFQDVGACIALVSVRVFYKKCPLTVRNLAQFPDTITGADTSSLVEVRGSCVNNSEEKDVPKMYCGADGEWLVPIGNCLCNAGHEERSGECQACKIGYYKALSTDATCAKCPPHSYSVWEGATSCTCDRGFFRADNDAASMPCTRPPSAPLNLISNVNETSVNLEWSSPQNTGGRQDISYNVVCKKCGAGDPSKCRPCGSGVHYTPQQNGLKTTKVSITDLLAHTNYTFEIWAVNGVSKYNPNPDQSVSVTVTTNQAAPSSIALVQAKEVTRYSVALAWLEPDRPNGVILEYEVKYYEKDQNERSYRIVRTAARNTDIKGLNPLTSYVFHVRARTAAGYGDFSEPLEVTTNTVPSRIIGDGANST

- IC50 [1]: 3.7 nM
- hEphA7-SEAP-: absorbance at 450 nm, percentage with respect to hEphA4-SEAP-His as 100% (human EphA7): 5.5%
- hEphA8-SEAP-: absorbance at 450 nm, percentage with respect to hEphA4-SEAP-His as 100% (human EphA8): 5.7%
B1: 142 (antibody, V domains shown)
VH: QVQLVQSGSELKKPGASVKVSCKASGYTFTDYSMHWVRQAPGQGLKWMGWINTETGEPTYADDFKGRFVFSLDTSVSTAYLQISSLKAEDTAVYYCARIPLYYYGSRYWYFDVWGQGTTVTVSS
VL: DIQMTQSPSSLSASVGDRVTITCRASENIYRNLAWYQQKPGKAPKLLVYAATNLADGVPSRFSGSGSGTDYTLTISSLQPEDFATYYCQHFWGTPWTFGQGTKVEIK
modifications: synthetic humanized antibody heavy chain variable region sequence; synthetic humanized antibody light chain variable region sequence

- IC50 [1]: 2.6 nM
- hEphA7-SEAP-: absorbance at 450 nm, percentage with respect to hEphA4-SEAP-His as 100% (human EphA7): 5.5%
- hEphA8-SEAP-: absorbance at 450 nm, percentage with respect to hEphA4-SEAP-His as 100% (human EphA8): 5.5%
B2: 159 (antibody, V domains shown)
VH: B1 VH
VL: B1 VL with K45Q, V48L
modifications: synthetic humanized antibody heavy chain variable region sequence; synthetic humanized antibody light chain variable region sequence

- IC50 [1]: 2.3 nM
- hEphA7-SEAP-: absorbance at 450 nm, percentage with respect to hEphA4-SEAP-His as 100% (human EphA7): 6.2%
- hEphA8-SEAP-: absorbance at 450 nm, percentage with respect to hEphA4-SEAP-His as 100% (human EphA8): 6.1%
B3: 153 (antibody, V domains shown)
VH: B1 VH with D62Q, D63G, K65T
VL: B1 VL with V48L, P80S
modifications: synthetic humanized antibody heavy chain variable region sequence; synthetic humanized antibody light chain variable region sequence

- IC50 [1]: 2.4 nM
- hEphA7-SEAP-: absorbance at 450 nm, percentage with respect to hEphA4-SEAP-His as 100% (human EphA7): 5.6%
- hEphA8-SEAP-: absorbance at 450 nm, percentage with respect to hEphA4-SEAP-His as 100% (human EphA8): 5.5%
B4: 155 (antibody, V domains shown)
VH: B1 VH with V2I
VL: B1 VL with V48L, P80S
modifications: synthetic humanized antibody heavy chain variable region sequence; synthetic humanized antibody light chain variable region sequence

- IC50 [1]: 2.8 nM
- hEphA7-SEAP-: absorbance at 450 nm, percentage with respect to hEphA4-SEAP-His as 100% (human EphA7): 6.3%
- hEphA8-SEAP-: absorbance at 450 nm, percentage with respect to hEphA4-SEAP-His as 100% (human EphA8): 6.4%
B5: 158 (antibody, V domains shown)
VH: B1 VH with D62Q, D63G, K65T
VL: B1 VL with K45Q, V48L
modifications: synthetic humanized antibody heavy chain variable region sequence; synthetic humanized antibody light chain variable region sequence

- IC50 [1]: 2 nM
- hEphA7-SEAP-: absorbance at 450 nm, percentage with respect to hEphA4-SEAP-His as 100% (human EphA7): 6.8%
- hEphA8-SEAP-: absorbance at 450 nm, percentage with respect to hEphA4-SEAP-His as 100% (human EphA8): 6.9%
B6: 151 (antibody, V domains shown)
VH: B1 VH with V2I, D62Q, D63G, K65T
VL: B1 VL with V48L, P80S
modifications: synthetic humanized antibody heavy chain variable region sequence; synthetic humanized antibody light chain variable region sequence

- IC50 [1]: 2 nM
- hEphA7-SEAP-: absorbance at 450 nm, percentage with respect to hEphA4-SEAP-His as 100% (human EphA7): 5.7%
- hEphA8-SEAP-: absorbance at 450 nm, percentage with respect to hEphA4-SEAP-His as 100% (human EphA8): 6.0%
B7: 152 (antibody, V domains shown)
VH: B1 VH with K46E, D62Q, D63G, K65T
VL: B1 VL with V48L, P80S
modifications: synthetic humanized antibody heavy chain variable region sequence; synthetic humanized antibody light chain variable region sequence

- IC50 [1]: 3.7 nM
- hEphA7-SEAP-: absorbance at 450 nm, percentage with respect to hEphA4-SEAP-His as 100% (human EphA7): 6.3%
- hEphA8-SEAP-: absorbance at 450 nm, percentage with respect to hEphA4-SEAP-His as 100% (human EphA8): 6.6%
B8: 145 (antibody, V domains shown)
VH: B1 VH
VL: B1 VL with V48L, P80S
modifications: synthetic humanized antibody heavy chain variable region sequence; synthetic humanized antibody light chain variable region sequence

- IC50 [1]: 5.3 nM
- hEphA7-SEAP-: absorbance at 450 nm, percentage with respect to hEphA4-SEAP-His as 100% (human EphA7): 5.8%
- hEphA8-SEAP-: absorbance at 450 nm, percentage with respect to hEphA4-SEAP-His as 100% (human EphA8): 6.0%
B9: 143 (antibody, V domains shown)
VH: B1 VH with V2I
VL: B1 VL
modifications: synthetic humanized antibody heavy chain variable region sequence; synthetic humanized antibody light chain variable region sequence

- IC50 [1]: 2.5 nM
- hEphA7-SEAP-: absorbance at 450 nm, percentage with respect to hEphA4-SEAP-His as 100% (human EphA7): 6.3%
- hEphA8-SEAP-: absorbance at 450 nm, percentage with respect to hEphA4-SEAP-His as 100% (human EphA8): 5.5%
B10: 154 (antibody, V domains shown)
VH: B1 VH with K46E
VL: B1 VL with V48L, P80S
modifications: synthetic humanized antibody heavy chain variable region sequence; synthetic humanized antibody light chain variable region sequence

- IC50 [1]: 3.6 nM
- hEphA7-SEAP-: absorbance at 450 nm, percentage with respect to hEphA4-SEAP-His as 100% (human EphA7): 5.6%
- hEphA8-SEAP-: absorbance at 450 nm, percentage with respect to hEphA4-SEAP-His as 100% (human EphA8): 5.8%
B11: 144 (antibody, V domains shown)
VH: B1 VH with K46E
VL: B1 VL with K45Q, V48L
modifications: synthetic humanized antibody heavy chain variable region sequence; synthetic humanized antibody light chain variable region sequence

- IC50 [1]: 2.6 nM
- hEphA7-SEAP-: absorbance at 450 nm, percentage with respect to hEphA4-SEAP-His as 100% (human EphA7): 6.0%
- hEphA8-SEAP-: absorbance at 450 nm, percentage with respect to hEphA4-SEAP-His as 100% (human EphA8): 6.0%
B12: 157 (antibody, V domains shown)
VH: B1 VH with K46E, D62Q, D63G, K65T
VL: B1 VL with K45Q, V48L
modifications: synthetic humanized antibody heavy chain variable region sequence; synthetic humanized antibody light chain variable region sequence

From patent publication US10428140B2, “Anti-EphA4 antibody” (EISAI R&D MANAGEMENT CO., LTD., priority 2015, dated 2019)
